Test results taken from patent publication US20110245153A1.
pKd: −log10 of the molar value.

Experiments:
[1] = molecular target: staphylococcal enterotoxin B (SEB), Staphylococcus aureus superantigen peptide; assay: fusion: Aga2 (yeast display)
[2] = molecular target: toxic shock syndrome toxin-1 (TSST-1), Staphylococcus aureus superantigen peptide; assay: soluble, other

Row | Substance | pKd [1] | pKd [2]
1 | EGIGYITK | 8.30 | –
2 | wild type hVβ2.1 | – | 5.64
